The record followed here is publication PMC6345439, “INDETERMINATE-DOMAIN 4 (IDD4) coordinates immune responses with plant-growth in Arabidopsis thaliana”.

Data set [1] addresses T1, MBP-IDD4-DD (phospho-mimic, truncated) (Arabidopsis thaliana, UniProt Q8GYC1 20-219, S73D;T130D).
T1 sequence: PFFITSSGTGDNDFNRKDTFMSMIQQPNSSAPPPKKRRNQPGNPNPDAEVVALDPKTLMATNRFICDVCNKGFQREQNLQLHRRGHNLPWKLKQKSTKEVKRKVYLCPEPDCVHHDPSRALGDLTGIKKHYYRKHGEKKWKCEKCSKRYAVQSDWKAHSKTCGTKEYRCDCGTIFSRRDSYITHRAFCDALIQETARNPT
As to the kind of experiment: EMSA; LightShift Chemiluminescent EMSA kit instructions; 20 fmol biotinylated DNA, 1 ug protein; buffer, salt, pH and temperature not stated. The settings on record: protein: recombinant; tags: MBP; label: 3' biotin; blunt. For orientation: Mobility shift assays separate free from complexed probe on a gel.

In data set [2] the target is T1, MBP-IDD4-DD (phospho-mimic, truncated). The data set is described as follows: competition; unlabeled competitor up to 0.5 uM (100x excess) against N1; LightShift Chemiluminescent EMSA kit instructions; 20 fmol biotinylated DNA, 1 ug protein; buffer, salt, pH and temperature not stated. The settings on record: protein: recombinant; tags: MBP; blunt.

B1: SAGT1 promoter ID1 probe (395s/395as) (dsDNA)
DNA 1: ACATGGTAGACAAAATAATGAAGCCAAAATTAATA
DNA 2: TATTAATTTTGGCTTCATTATTTTGTCTACCATGT
For the molecule B1, the binding result in data set [1] is on record as “binds”.

B2: SAGT1 promoter ID1 competitor, unlabeled (spe) (dsDNA)
DNA 1: B1 DNA 1
DNA 2: B1 DNA 2
Take B2: the binding result in data set [2] was “binds”.
